Reference: doi:10.1101/2021.05.05.442573, “Relief of ParB autoinhibition by parS DNA catalysis and ParB recycling by CTP hydrolysis promote bacterial centromere assembly” (bioRxiv, 2021)

B1: ParB(R105C, H133C), purified (natural protein, B. subtilis, UniProt P26497 1-282, looked up)
chain: MAKGLGKGINALFNQVDLSEETVEEIKIADLRPNPYQPRKHFDDEALAELKESVLQHGILQPLIVRKSLKGYDIVAGERRFRAAKLAGLDTVPAIVRELSEALMCEIALLENLQREDLSPLEEAQAYDSLLKCLDLTQEQLAKRLGKSRPHIANHLRLLTLPENIQQLIAEGTLSMGHGRTLLGLKNKNKLEPLVQKVIAEQLNVRQLEQLIQQLNQNVPRETKKKEPVKDAVLKERESYLQNYFGTTVNIKRQKKKGKIEIEFFSNEDLDRILELLSERES
notes: Purification as in Soh et al., 2019; source: E. coli BL21-Gold (DE3), untagged, purified (ammonium sulfate, heparin, HiTrap SP, Superdex 200)
B2: ParB(T22C, E111Q), purified (natural protein, B. subtilis, UniProt P26497 1-282, looked up)
chain: MAKGLGKGINALFNQVDLSEECVEEIKIADLRPNPYQPRKHFDDEALAELKESVLQHGILQPLIVRKSLKGYDIVAGERRFRAAKLAGLDTVPAIVRELSEALMREIALLQNLQREDLSPLEEAQAYDSLLKHLDLTQEQLAKRLGKSRPHIANHLRLLTLPENIQQLIAEGTLSMGHGRTLLGLKNKNKLEPLVQKVIAEQLNVRQLEQLIQQLNQNVPRETKKKEPVKDAVLKERESYLQNYFGTTVNIKRQKKKGKIEIEFFSNEDLDRILELLSERES
notes: the combination is not spelled out for the purified protein; also called EQ mutant; source: E. coli BL21-Gold (DE3), untagged, purified (ammonium sulfate, heparin, HiTrap SP, Superdex 200)
B3: ParB(T22C, E78Q), purified (natural protein, B. subtilis, UniProt P26497 1-282, looked up)
chain: MAKGLGKGINALFNQVDLSEECVEEIKIADLRPNPYQPRKHFDDEALAELKESVLQHGILQPLIVRKSLKGYDIVAGQRRFRAAKLAGLDTVPAIVRELSEALMREIALLENLQREDLSPLEEAQAYDSLLKHLDLTQEQLAKRLGKSRPHIANHLRLLTLPENIQQLIAEGTLSMGHGRTLLGLKNKNKLEPLVQKVIAEQLNVRQLEQLIQQLNQNVPRETKKKEPVKDAVLKERESYLQNYFGTTVNIKRQKKKGKIEIEFFSNEDLDRILELLSERES
notes: as for B2
B4: ParB(A102C, H133C), purified (natural protein, B. subtilis, UniProt P26497 1-282, looked up)
chain: MAKGLGKGINALFNQVDLSEETVEEIKIADLRPNPYQPRKHFDDEALAELKESVLQHGILQPLIVRKSLKGYDIVAGERRFRAAKLAGLDTVPAIVRELSECLMREIALLENLQREDLSPLEEAQAYDSLLKCLDLTQEQLAKRLGKSRPHIANHLRLLTLPENIQQLIAEGTLSMGHGRTLLGLKNKNKLEPLVQKVIAEQLNVRQLEQLIQQLNQNVPRETKKKEPVKDAVLKERESYLQNYFGTTVNIKRQKKKGKIEIEFFSNEDLDRILELLSERES
notes: as for B1
B5: ParB(T22C), purified (natural protein, B. subtilis, UniProt P26497 1-282, looked up)
chain: MAKGLGKGINALFNQVDLSEECVEEIKIADLRPNPYQPRKHFDDEALAELKESVLQHGILQPLIVRKSLKGYDIVAGERRFRAAKLAGLDTVPAIVRELSEALMREIALLENLQREDLSPLEEAQAYDSLLKHLDLTQEQLAKRLGKSRPHIANHLRLLTLPENIQQLIAEGTLSMGHGRTLLGLKNKNKLEPLVQKVIAEQLNVRQLEQLIQQLNQNVPRETKKKEPVKDAVLKERESYLQNYFGTTVNIKRQKKKGKIEIEFFSNEDLDRILELLSERES
notes: as for B1

Target: the molecule itself
Experiment: cross-linking; in vitro BMOE cysteine cross-linking of purified ParB (10 uM monomer, 1 mM BMOE, 5 min RT; 150 mM NaCl, 50 mM Tris-HCl pH 7.5, 5 mM MgCl2); without ligand, with 1 mM CTP or CTPγS, with 1 uM 40 bp parS DNA, or with both; SDS-PAGE, Coomassie

Binding result, binds:
B1
B2
B3
B4
B5
